Tested on: MtPMT
Type: cell-based
Settings: MtPMT mutant expressed in M. smegmatis ΔMsPMT; ELLA, relative to WT (100%) and No PMT (0%)

| Molecule | FasC^His mannosylation / MtPMT enzymatic activity (ConA binding) | reduction (drop) of apparent FasC mannosylation level |
| --- | --- | --- |
| D74A (protein, UniProt P9WN05 1-522, looked up, variant D74A) Polyprenol-phosphate-mannose-- …: MTARPPESCVLAKDRPEEPVVPVVSPGPLVPVADFGPLDRLRGWIVTGLITLLATVTRFLNLGSLTDAGTPIFAEKHYAPQAWQVLNNHGVEDNPGYGLVVHPPVGKQLIAIGEAIFGYNGFGWRFTGALLGVVLVALVVRIVRRISRSTLVGAIAGVLLICDGVSFVTARTALLDGFLTFFVVAAFGALIVDRDQVRERMHIALLAGRSAATVWGPRVGVRWWRFGAGVLLGLACATKWSGVYFVLFFGAMALAFDVAARRQYQVQRPWLGTVRRDVLPSGYALGLIPFAVYLATYAPWFASETAIDRHAVGQAVGRNSVVPLPDAVRSLWHYTAKAFHFHAGLTNSAGNYHPWESKPWTWPMSLRPVLYAIDQQDVAGCGAQSCVKAEMLVGTPAMWWLAVPVLAYAGWRMFVRRDWRYAVVLVGYCAGWLPWFADIDRQMYFFYAATMAPFLVMGISLVLGDILYHPGQGSERRTLGLIVVCCYVALVVTNFAWLYPVLTGLPISQQTWNLEIWLPSWR | complete lack of mannosylation |  |
| D74E (protein, UniProt P9WN05 1-522, looked up, variant D74E) Polyprenol-phosphate-mannose-- …: MTARPPESCVLAKDRPEEPVVPVVSPGPLVPVADFGPLDRLRGWIVTGLITLLATVTRFLNLGSLTDAGTPIFEEKHYAPQAWQVLNNHGVEDNPGYGLVVHPPVGKQLIAIGEAIFGYNGFGWRFTGALLGVVLVALVVRIVRRISRSTLVGAIAGVLLICDGVSFVTARTALLDGFLTFFVVAAFGALIVDRDQVRERMHIALLAGRSAATVWGPRVGVRWWRFGAGVLLGLACATKWSGVYFVLFFGAMALAFDVAARRQYQVQRPWLGTVRRDVLPSGYALGLIPFAVYLATYAPWFASETAIDRHAVGQAVGRNSVVPLPDAVRSLWHYTAKAFHFHAGLTNSAGNYHPWESKPWTWPMSLRPVLYAIDQQDVAGCGAQSCVKAEMLVGTPAMWWLAVPVLAYAGWRMFVRRDWRYAVVLVGYCAGWLPWFADIDRQMYFFYAATMAPFLVMGISLVLGDILYHPGQGSERRTLGLIVVCCYVALVVTNFAWLYPVLTGLPISQQTWNLEIWLPSWR | only marginally restored enzyme activity |  |
| E74D75: di-substitution of D74E75 with the reversed doublet (protein, UniProt P9WN05 1-522, looked up, variant D74E E75D) Polyprenol-phosphate-mannose-- …: MTARPPESCVLAKDRPEEPVVPVVSPGPLVPVADFGPLDRLRGWIVTGLITLLATVTRFLNLGSLTDAGTPIFEDKHYAPQAWQVLNNHGVEDNPGYGLVVHPPVGKQLIAIGEAIFGYNGFGWRFTGALLGVVLVALVVRIVRRISRSTLVGAIAGVLLICDGVSFVTARTALLDGFLTFFVVAAFGALIVDRDQVRERMHIALLAGRSAATVWGPRVGVRWWRFGAGVLLGLACATKWSGVYFVLFFGAMALAFDVAARRQYQVQRPWLGTVRRDVLPSGYALGLIPFAVYLATYAPWFASETAIDRHAVGQAVGRNSVVPLPDAVRSLWHYTAKAFHFHAGLTNSAGNYHPWESKPWTWPMSLRPVLYAIDQQDVAGCGAQSCVKAEMLVGTPAMWWLAVPVLAYAGWRMFVRRDWRYAVVLVGYCAGWLPWFADIDRQMYFFYAATMAPFLVMGISLVLGDILYHPGQGSERRTLGLIVVCCYVALVVTNFAWLYPVLTGLPISQQTWNLEIWLPSWR | failed to restore Fasc^His mannosylation |  |
| D176E (protein, UniProt P9WN05 1-522, looked up, variant D176E) Polyprenol-phosphate-mannose-- …: MTARPPESCVLAKDRPEEPVVPVVSPGPLVPVADFGPLDRLRGWIVTGLITLLATVTRFLNLGSLTDAGTPIFDEKHYAPQAWQVLNNHGVEDNPGYGLVVHPPVGKQLIAIGEAIFGYNGFGWRFTGALLGVVLVALVVRIVRRISRSTLVGAIAGVLLICDGVSFVTARTALLEGFLTFFVVAAFGALIVDRDQVRERMHIALLAGRSAATVWGPRVGVRWWRFGAGVLLGLACATKWSGVYFVLFFGAMALAFDVAARRQYQVQRPWLGTVRRDVLPSGYALGLIPFAVYLATYAPWFASETAIDRHAVGQAVGRNSVVPLPDAVRSLWHYTAKAFHFHAGLTNSAGNYHPWESKPWTWPMSLRPVLYAIDQQDVAGCGAQSCVKAEMLVGTPAMWWLAVPVLAYAGWRMFVRRDWRYAVVLVGYCAGWLPWFADIDRQMYFFYAATMAPFLVMGISLVLGDILYHPGQGSERRTLGLIVVCCYVALVVTNFAWLYPVLTGLPISQQTWNLEIWLPSWR | slightly restored mannosylation activity |  |
| phenylalanine was substituted for Y444: MtPMT with phenylalanine substituted for Y444 (protein, UniProt P9WN05 1-522, looked up, variant Y444F) Polyprenol-phosphate-mannose-- …: MTARPPESCVLAKDRPEEPVVPVVSPGPLVPVADFGPLDRLRGWIVTGLITLLATVTRFLNLGSLTDAGTPIFDEKHYAPQAWQVLNNHGVEDNPGYGLVVHPPVGKQLIAIGEAIFGYNGFGWRFTGALLGVVLVALVVRIVRRISRSTLVGAIAGVLLICDGVSFVTARTALLDGFLTFFVVAAFGALIVDRDQVRERMHIALLAGRSAATVWGPRVGVRWWRFGAGVLLGLACATKWSGVYFVLFFGAMALAFDVAARRQYQVQRPWLGTVRRDVLPSGYALGLIPFAVYLATYAPWFASETAIDRHAVGQAVGRNSVVPLPDAVRSLWHYTAKAFHFHAGLTNSAGNYHPWESKPWTWPMSLRPVLYAIDQQDVAGCGAQSCVKAEMLVGTPAMWWLAVPVLAYAGWRMFVRRDWRYAVVLVGYCAGWLPWFADIDRQMFFFYAATMAPFLVMGISLVLGDILYHPGQGSERRTLGLIVVCCYVALVVTNFAWLYPVLTGLPISQQTWNLEIWLPSWR | almost half of the FasC mannosylation level remained |  |
| R441A (protein, UniProt P9WN05 1-522, looked up, variant R441A) Polyprenol-phosphate-mannose-- …: MTARPPESCVLAKDRPEEPVVPVVSPGPLVPVADFGPLDRLRGWIVTGLITLLATVTRFLNLGSLTDAGTPIFDEKHYAPQAWQVLNNHGVEDNPGYGLVVHPPVGKQLIAIGEAIFGYNGFGWRFTGALLGVVLVALVVRIVRRISRSTLVGAIAGVLLICDGVSFVTARTALLDGFLTFFVVAAFGALIVDRDQVRERMHIALLAGRSAATVWGPRVGVRWWRFGAGVLLGLACATKWSGVYFVLFFGAMALAFDVAARRQYQVQRPWLGTVRRDVLPSGYALGLIPFAVYLATYAPWFASETAIDRHAVGQAVGRNSVVPLPDAVRSLWHYTAKAFHFHAGLTNSAGNYHPWESKPWTWPMSLRPVLYAIDQQDVAGCGAQSCVKAEMLVGTPAMWWLAVPVLAYAGWRMFVRRDWRYAVVLVGYCAGWLPWFADIDAQMYFFYAATMAPFLVMGISLVLGDILYHPGQGSERRTLGLIVVCCYVALVVTNFAWLYPVLTGLPISQQTWNLEIWLPSWR | completely abolished FasC mannosylation |  |
| R441L (protein, UniProt P9WN05 1-522, looked up, variant R441L) Polyprenol-phosphate-mannose-- …: MTARPPESCVLAKDRPEEPVVPVVSPGPLVPVADFGPLDRLRGWIVTGLITLLATVTRFLNLGSLTDAGTPIFDEKHYAPQAWQVLNNHGVEDNPGYGLVVHPPVGKQLIAIGEAIFGYNGFGWRFTGALLGVVLVALVVRIVRRISRSTLVGAIAGVLLICDGVSFVTARTALLDGFLTFFVVAAFGALIVDRDQVRERMHIALLAGRSAATVWGPRVGVRWWRFGAGVLLGLACATKWSGVYFVLFFGAMALAFDVAARRQYQVQRPWLGTVRRDVLPSGYALGLIPFAVYLATYAPWFASETAIDRHAVGQAVGRNSVVPLPDAVRSLWHYTAKAFHFHAGLTNSAGNYHPWESKPWTWPMSLRPVLYAIDQQDVAGCGAQSCVKAEMLVGTPAMWWLAVPVLAYAGWRMFVRRDWRYAVVLVGYCAGWLPWFADIDLQMYFFYAATMAPFLVMGISLVLGDILYHPGQGSERRTLGLIVVCCYVALVVTNFAWLYPVLTGLPISQQTWNLEIWLPSWR | completely abolished FasC mannosylation |  |
| S365T (protein, UniProt P9WN05 1-522, looked up, variant S365T) Polyprenol-phosphate-mannose-- …: MTARPPESCVLAKDRPEEPVVPVVSPGPLVPVADFGPLDRLRGWIVTGLITLLATVTRFLNLGSLTDAGTPIFDEKHYAPQAWQVLNNHGVEDNPGYGLVVHPPVGKQLIAIGEAIFGYNGFGWRFTGALLGVVLVALVVRIVRRISRSTLVGAIAGVLLICDGVSFVTARTALLDGFLTFFVVAAFGALIVDRDQVRERMHIALLAGRSAATVWGPRVGVRWWRFGAGVLLGLACATKWSGVYFVLFFGAMALAFDVAARRQYQVQRPWLGTVRRDVLPSGYALGLIPFAVYLATYAPWFASETAIDRHAVGQAVGRNSVVPLPDAVRSLWHYTAKAFHFHAGLTNSAGNYHPWESKPWTWPMTLRPVLYAIDQQDVAGCGAQSCVKAEMLVGTPAMWWLAVPVLAYAGWRMFVRRDWRYAVVLVGYCAGWLPWFADIDRQMYFFYAATMAPFLVMGISLVLGDILYHPGQGSERRTLGLIVVCCYVALVVTNFAWLYPVLTGLPISQQTWNLEIWLPSWR | only partially impacted FasC mannosylation |  |
| L392A (protein, UniProt P9WN05 1-522, looked up, variant L392A) Polyprenol-phosphate-mannose-- …: MTARPPESCVLAKDRPEEPVVPVVSPGPLVPVADFGPLDRLRGWIVTGLITLLATVTRFLNLGSLTDAGTPIFDEKHYAPQAWQVLNNHGVEDNPGYGLVVHPPVGKQLIAIGEAIFGYNGFGWRFTGALLGVVLVALVVRIVRRISRSTLVGAIAGVLLICDGVSFVTARTALLDGFLTFFVVAAFGALIVDRDQVRERMHIALLAGRSAATVWGPRVGVRWWRFGAGVLLGLACATKWSGVYFVLFFGAMALAFDVAARRQYQVQRPWLGTVRRDVLPSGYALGLIPFAVYLATYAPWFASETAIDRHAVGQAVGRNSVVPLPDAVRSLWHYTAKAFHFHAGLTNSAGNYHPWESKPWTWPMSLRPVLYAIDQQDVAGCGAQSCVKAEMAVGTPAMWWLAVPVLAYAGWRMFVRRDWRYAVVLVGYCAGWLPWFADIDRQMYFFYAATMAPFLVMGISLVLGDILYHPGQGSERRTLGLIVVCCYVALVVTNFAWLYPVLTGLPISQQTWNLEIWLPSWR |  | 73% |
| Y371A-L392A (protein, UniProt P9WN05 1-522, looked up, variant Y371A L392A) Polyprenol-phosphate-mannose-- …: MTARPPESCVLAKDRPEEPVVPVVSPGPLVPVADFGPLDRLRGWIVTGLITLLATVTRFLNLGSLTDAGTPIFDEKHYAPQAWQVLNNHGVEDNPGYGLVVHPPVGKQLIAIGEAIFGYNGFGWRFTGALLGVVLVALVVRIVRRISRSTLVGAIAGVLLICDGVSFVTARTALLDGFLTFFVVAAFGALIVDRDQVRERMHIALLAGRSAATVWGPRVGVRWWRFGAGVLLGLACATKWSGVYFVLFFGAMALAFDVAARRQYQVQRPWLGTVRRDVLPSGYALGLIPFAVYLATYAPWFASETAIDRHAVGQAVGRNSVVPLPDAVRSLWHYTAKAFHFHAGLTNSAGNYHPWESKPWTWPMSLRPVLAAIDQQDVAGCGAQSCVKAEMAVGTPAMWWLAVPVLAYAGWRMFVRRDWRYAVVLVGYCAGWLPWFADIDRQMYFFYAATMAPFLVMGISLVLGDILYHPGQGSERRTLGLIVVCCYVALVVTNFAWLYPVLTGLPISQQTWNLEIWLPSWR | complete abolition of the mannosyl transferase activity |  |
